In article PMC12127727, “Double the Double: Revisiting BCL11B's Multimerization” (Proteins, 2025):
Where a chain is given by its changes, count along the chain named. In names and notes the source's numbering stands.

B1: BCL11B_(42–426) WT (domain or fragment, human, UniProt Q9C0K0 42-426, looked up)
chain: SGLGLMVGGPDPDLLTCGQCQMNFPLGDILVFIEHKRKQCGGSLGACYDKALDKDSPPPSSRSELRKVSEPVEIGIQVTPDEDDHLLSPTKGICPKQENIAGPCRPAQLPAVAPIAASSHPHSSVITSPLRALGALPPCLPLPCCSARPVSGDGTQGEGQTEAPFGCQCQLSGKDEPSSYICTTCKQPFNSAWFLLQHAQNTHGFRIYLEPGPASSSLTPRLTIPPPLGPEAVAQSPLMNFLGDSNPFNLLRMTGPILRDHPGFGEGRLPGTPPLFSPPPRHHLDPHRLSAEEMGLVAQHPSAFDRVMRLNPMAIDSPAMDFSRRLRELAGNSSTPPPVSPGRGNPMHRLLNPFQPSPKSPFLSTPPLPPMPPGGTPPPQPPAKS
notes: source: E. coli, recombinantly expressed, purified
B2: BCL11B_(42–220) WT (domain or fragment, human, UniProt Q9C0K0 42-220, looked up)
chain: SGLGLMVGGPDPDLLTCGQCQMNFPLGDILVFIEHKRKQCGGSLGACYDKALDKDSPPPSSRSELRKVSEPVEIGIQVTPDEDDHLLSPTKGICPKQENIAGPCRPAQLPAVAPIAASSHPHSSVITSPLRALGALPPCLPLPCCSARPVSGDGTQGEGQTEAPFGCQCQLSGKDEPSS
notes: BCL11B, human, residues 42-220: ZF0 extended up until the first C2H2 zinc finger domain (ZF1); source: E. coli, recombinantly expressed, purified
B3: BCL11B_(42–94) WT (N-terminal wild-type zinc finger domain, ZF0) (domain or fragment, human, UniProt Q9C0K0 42-94, looked up)
chain: SGLGLMVGGPDPDLLTCGQCQMNFPLGDILVFIEHKRKQCGGSLGACYDKALD
notes: B Cell Lymphoma/Leukemia 11B (BCL11B), human, residues 42-94, atypical CCHC zinc finger domain ZF0; source: E. coli, recombinantly expressed, purified
B4: BCL11B_(42–94) C81H (domain or fragment, human, UniProt Q9C0K0 42-94, looked up)
chain: B3 chain with C40H
notes: BCL11B, human, residues 42-94 (ZF0) with C81H, which turns the CCHC zinc finger into a C2H2 zinc finger; also called zinc finger mutant C81H; source: E. coli, recombinantly expressed, purified
B5: BCL11B_(42–94) I74A (domain or fragment, human, UniProt Q9C0K0 42-94, looked up)
chain: B3 chain with I33A
notes: BCL11B, human, residues 42-94 (ZF0) with I74A; CD spectra indicate an incomplete zinc finger fold; source: E. coli, recombinantly expressed, purified
B6: BCL11B_(42–94) I70A (domain or fragment, human, UniProt Q9C0K0 42-94, looked up)
chain: B3 chain with I29A
notes: BCL11B, human, residues 42-94 (ZF0) with I70A; CD spectra indicate an incomplete zinc finger fold; source: E. coli, recombinantly expressed, purified
B7: BCL11B_(42–94) K77A (domain or fragment, human, UniProt Q9C0K0 42-94, looked up)
chain: B3 chain with K36A
notes: BCL11B, human, residues 42-94 (ZF0) with K77A; also called lysine mutant K77A; source: E. coli, recombinantly expressed, purified
B8: BCL11B_(42–94) L71A/V72A (domain or fragment, human, UniProt Q9C0K0 42-94, looked up)
chain: B3 chain with L30A, V31A
notes: BCL11B, human, residues 42-94 (ZF0) with L71A and V72A; also called double mutant L71A/V72A; source: E. coli, recombinantly expressed, purified

Biological target: the molecule itself
Assay: SEC; analytical size exclusion chromatography of the purified recombinant constructs; stoichiometric factors calculated from elution volumes with a calibration curve (Figure S1); rough estimate of molecular weights

In order of rising “stoichiometry N” value:
1. B1  4
2. B3  7
3. B2  16.6

Biological target: the molecule itself
Assay: cross-linking; constructs incubated with BS(PEG)5 (bis-succinimide ester-activated PEG, 21.7 Å), then reducing 16% tricine SDS-PAGE of crosslinked and control samples

In order of rising “stoichiometry N” value:
1. B5  2
2. B6  2
3. B7  2
4. B3  4
5. B4  4
6. B8  4
